Measured values reported in patent US20130130288A1 (published 2013).

How the values were obtained:
[1] = biological target: T1, Aβ1-40 monomer; test: BIACORE (SPR)
T1 construct: also called Aβ40 monomer; monomer Aβ

[2] = biological target: T2, amyloid β-derived diffusible ligands (ADDLs), oligomers of Aβ1-42; test: BIACORE (SPR)
T2 construct: number of copies not defined; also called Aβ oligomers; Aβ oligomer

[3] = biological target: T2, amyloid β-derived diffusible ligands …; test: three-pronged Aβ ELISA (M90/1 polyclonal capture); ratio of binding to ADDLs over fibrillar Aβ
[4] = biological target: T2, amyloid β-derived diffusible ligands …; test: competitive ELISA, ratio of the two competition EC50 values
[5] = biological target: T1, Aβ1-40 monomer; test: ELISA on coated antigen, chemiluminescence; antibody stored 1 month at 4°
[6] = biological target: T1, Aβ1-40 monomer; test: ELISA on coated antigen, chemiluminescence; antibody stored 1 month at 25°
[7] = biological target: T2, amyloid β-derived diffusible ligands …; test: KINEXA; constant for Aβ1-40 over constant for ADDLs
[8] = biological target: T2, amyloid β-derived diffusible ligands …; test: one-sided ELISA on coated Aβ oligomers or Aβ1-40
[9] = biological target: T2, amyloid β-derived diffusible ligands …; test: three-pronged Aβ ELISA (M90/1 polyclonal capture); ratio of binding to ADDLs over monomeric Aβ
[10] = biological target: T2, amyloid β-derived diffusible ligands …; test: competitive ELISA
[11] = biological target: T1, Aβ1-40 monomer; test: KINEXA, equilibrium constant in solution
[12] = biological target: T2, amyloid β-derived diffusible ligands …; test: KINEXA, equilibrium constant in solution
[13] = biological target: T2, amyloid β-derived diffusible ligands …; test: ELISA, IgG2 antibodies
[14] = biological target: T2, amyloid β-derived diffusible ligands …; test: … bead-based immunoassay; signal at 0.2 pM ADDLs greater than at 1000 pM Aβ1-40
[15] = biological target: T1, Aβ1-40 monomer; test: one-sided ELISA, plate coated with 100 pmol/well Aβ1-40, chemiluminescence
[16] = biological target: T2, amyloid β-derived diffusible ligands …; test: sandwich ELISA, 19.3 capture and 82E1 detection, luminescence (ENVISION)
[17] = biological target: T2, amyloid β-derived diffusible ligands …; test: one-sided ELISA, plate coated with 50 pmol/well Aβ oligomers, chemiluminescence
[18] = biological target: T2, amyloid β-derived diffusible ligands …; test: ERENNA sandwich immunoassay, 19.3 capture, labelled 82E1 detection
[19] = biological target: T1, Aβ1-40 monomer; test: ELISA on coated antigen, chemiluminescence; antibody at 0 timepoint
[20] = biological target: T2, amyloid β-derived diffusible ligands …; test: BIACORE (SPR); affinity for Aβ1-40 over affinity for ADDLs
[21] = biological target: T1, Aβ1-40 monomer; test: ELISA on coated antigen, chemiluminescence; antibody stored 1 month at 40°

B1: anti-ADDL antibody 19.3 (antibody, V domains shown)
VH: EVQLVESGGGLVQPGGSLRLSCAASGFTFSSFGMHWVRQAPGKGLEWVAYISRGSSTIYYADTVKGRFTISRDNAKNSLYLQMNSLRAEDTAVYYCARGITTALDYWGQGTLVTVSS
VL: DVVMTQSPLSLPVTPGEPASISCRSSQSIVHSNGNTYLEWYLQKPGQSPQLLIYKASNRFSGVPDRFSGSGSGTDFTLKISRVEAEDVGVYYCFQGSRLGPSFGQGTKLEIKR
Question: For B1, which Kd [1] is on record?
Answer: Its Kd is 150 nM.

Question: What about the Kd [2] of the same binder?
Answer: The Kd was 4.8 nM.

Question: And the “ADDL:Fibrillar” value [3]?
Answer: Its value is 2 ratio.

Question: And the “affinity for Aβ1-42 oligomers compared to Aβ1-40 monomers” value [4]?
Answer: Its value is roughly 630 ratio.

Question: What about the EC50 [5] of the same binder?
Answer: The EC50 was 16.3 nM.

Question: And the EC50 [6]?
Answer: Its EC50 is 22.1 nM.

Question: What about the “Ratio (Aβ monomer/ADDL)” value [7] of the same binder?
Answer: The value was roughly 6.2 ratio.

Question: And the “fold greater potency for Aβ oligomers as compared to Aβ40 monomer” value [8]?
Answer: The value was roughly 3.7 fold.

Question: And the “ADDL:Monomer” value [9]?
Answer: The value was 2.5 ratio.

Question: What about the “fold higher concentration of Aβ1-40 needed to displace 50% of 19.3 from Aβ oligomers than of Aβ oligomers to displace 19.3 from Aβ1-40” value [10] of the same binder?
Answer: Its value is roughly 600 fold.

Question: And the Kd [11]?
Answer: The Kd was 16.7 nM.

Question: What about the Kd [12] of the same binder?
Answer: The Kd was 2.7 nM.

Question: And the EC50 [13]?
Answer: The EC50 was 0.8 nM.

Question: And the “ADDL versus monomeric Aβ selectivity” value [14]?
Answer: The value was roughly 5000 fold.

Question: And the EC50 [15]?
Answer: Its EC50 is roughly 4.3 nM.

Question: What about the “fold selectivity for Aβ oligomer signal as compared to Aβ40 monomers” value [16] of the same binder?
Answer: Its value is roughly 1000 fold.

Question: And the EC50 [17]?
Answer: The EC50 was roughly 1.6 nM.

Question: What about the “fold selectivity of the assay for Aβ oligomers over Aβ 40 monomer” value [18] of the same binder?
Answer: Its value is 5000 fold.

Question: And the EC50 [19]?
Answer: The EC50 was 10.1 nM.

Question: What about the “Ratio (Aβ monomer/ADDL)” value [20] of the same binder?
Answer: The value was roughly 31 ratio.

Question: And the EC50 [21]?
Answer: The EC50 was 88.8 nM.

B2: anti-ADDL antibody 17.1 (antibody, V domains shown)
VH: EVQLVESGGGLVQPGGSLRLSCAASGFTFSSFGMHWVRQAPGKGLEWVAYISRGSSTIYYADTVKGRFTISRDNAKNSLYLQMNSLRAEDTAVYYCARGITTALDYWGQGTLVTVSS
VL: DVVMTQSPLSLPVTPGEPASISCRSSQSIVHSNGNTYLEWYLQKPGQSPQLLIYKASNRFSGVPDRFSGSGSGTDFTLKISRVEAEDVGVYYCFQGSRVPASFGQGTKLEIKR
Question: Which “ADDL:Fibrillar” value [3] does the source give for B2 here?
Answer: Its value is 2.1 ratio.

Question: What about the “ADDL:Monomer” value [9] of the same binder?
Answer: Its value is 3.2 ratio.

B3: 19.3 N33T (antibody, V domains shown)
VH: EVQLVESGGGLVQPGGSLRLSCAASGFTFSSFGMHWVRQAPGKGLEWVAYISRGSSTIYYADTVKGRFTISRDNAKNSLYLQMNSLRAEDTAVYYCARGITTALDYWGQGTLVTVSS
VL: DVVMTQSPLSLPVTPGEPASISCRSSQSIVHSTGNTYLEWYLQKPGQSPQLLIYKASNRFSGVPDRFSGSGSGTDFTLKISRVEAEDVGVYYCFQGSRLGPSFGQGTKLEIL
Question: With B3 as the binder, how does the EC50 [5] read?
Answer: Its EC50 is 307 nM.

Question: And the EC50 [19]?
Answer: Its EC50 is 332 nM.

Question: And the EC50 [21]?
Answer: The EC50 was 96.3 nM.

B4: anti-ADDL antibody 14.2 (antibody, V domains shown)
VH: EVQLVESGGGLVQPGGSLRLSCAASGFTFSSFGMHWVRQAPGKGLEWVAYISRGSSTIYYADTVKGRFTISRDNAKNSLYLQMNSLRAEDTAVYYCARGITTALDYWGQGTLVTVSS
VL: DVVMTQSPLSLPVTPGEPASISCRSSQSIVHSNGNTYLEWYLQKPGQSPQLLIYKASNRFSGVPDRFSGSGSGTDFTLKISRVEAEDVGVYYCFQGSRVPPGFGQGTKLEIKR
Question: B4 was tested. Which “ADDL:Monomer” value [9] did it give?
Answer: The value was 4.2 ratio.

B5: anti-ADDL antibody 11.4 (antibody, V domains shown)
VH: EVQLVESGGGLVQPGGSLRLSCAASGFTFSSFGMHWVRQAPGKGLEWVAYISRGSSTIYYADTVKGRFTISRDNAKNSLYLQMNSLRAEDTAVYYCARGITTALDYWGQGTLVTVSS
VL: DVVMTQSPLSLPVTPGEPASISCRSSQSIVHSNGNTYLEWYLQKPGQSPQLLIYKASNRFSGVPDRFSGSGSGTDFTLKISRVEAEDVGVYYCFQGSRVPVRFGQGTKLEIKR
Question: How did the “ADDL:Fibrillar” value [3] turn out when B5 was run?
Answer: The value was 2.4 ratio.

Question: What about the “ADDL:Monomer” value [9] of the same binder?
Answer: The value was 2.4 ratio.

B6: 19.3 N33S (antibody, V domains shown)
VH: EVQLVESGGGLVQPGGSLRLSCAASGFTFSSFGMHWVRQAPGKGLEWVAYISRGSSTIYYADTVKGRFTISRDNAKNSLYLQMNSLRAEDTAVYYCARGITTALDYWGQGTLVTVSS
VL: DVVMTQSPLSLPVTPGEPASISCRSSQSIVHSSGNTYLEWYLQKPGQSPQLLIYKASNRFSGVPDRFSGSGSGTDFTLKISRVEAEDVGVYYCFQGSRLGPSFGQGTKLEIL
Question: Which results are given for B6?
Answer: EC50 [5]: 59.1 nM; EC50 [6]: 24.3 nM; EC50 [19]: 55.1 nM; EC50 [21]: 29.9 nM

B7: anti-ADDL antibody 13.1 (antibody, V domains shown)
VH: EVQLVESGGGLVQPGGSLRLSCAASGFTFSSFGMHWVRQAPGKGLEWVAYISRGSSTIYYADTVKGRFTISRDNAKNSLYLQMNSLRAEDTAVYYCARGITTALDYWGQGTLVTVSS
VL: DVVMTQSPLSLPVTPGEPASISCRSSQSIVHSNGNTYLEWYLQKPGQSPQLLIYKASNRFSGVPDRFSGSGSGTDFTLKISRVEAEDVGVYYCFQGSKAHPSFGQGTKLEIKR
Question: B7 was tested. Which “ADDL:Fibrillar” value [3] did it give?
Answer: The value was 2 ratio.

Question: And the “ADDL:Monomer” value [9]?
Answer: Its value is 2.4 ratio.
